Laboratory results published in PMC13530268.
Read-outs that look alike come from different tables or passages of the source. Blank lines part the entries; values can stand above or below the molecule they belong to.

Assays:
[1] = molecular target: ALX4 homeodomain protein (amino acids 209-274) (human) (UniProt Q9H161); experiment: native gel or EMSA
[2] = molecular target: PITX3 homeodomain protein (66 amino acid region) (human); experiment: native gel or EMSA
[3] = molecular target: PHOX2B Q46R homeodomain protein (human); experiment: native gel or EMSA
[4] = molecular target: PHOX2B Q46K homeodomain protein (human); experiment: native gel or EMSA
[5] = molecular target: OTP homeodomain protein (amino acids 99-164) (human) (UniProt Q5XKR4); experiment: native gel or EMSA
CRX HD R2Q [6] = molecular target: T1, CRX HD R2Q (Homo sapiens, UniProt O43186 34-99, R40Q); experiment: EMSA
CRX HD K50Q [7] = molecular target: T2, CRX HD K50Q (Homo sapiens, UniProt O43186 34-99, K88Q); experiment: EMSA
CRX HD [8] = molecular target: T3, CRX HD (Homo sapiens, UniProt O43186 34-99); experiment: EMSA
CRX HD E4N;K50Q [9] = molecular target: T4, CRX HD E4N;K50Q (Homo sapiens, UniProt O43186 34-99, E42N;K88Q); experiment: EMSA
CRX HD E4N = CRX HD E4N (Homo sapiens, UniProt O43186 34-99, E42N); experiment: EMSA
ARX HD P26L = ARX HD P26L (Mus musculus, UniProt O35085 326-390, P355L); experiment: EMSA
PHOX2B HD R44G = PHOX2B HD R44G (Homo sapiens, UniProt Q99453 94-158, R141G); experiment: EMSA
CRX HD K50Q [10] = molecular target: T2, CRX HD K50Q; experiment: EMSA; remark: listed apart in the source
CRX HD E4N;K50Q [11] = molecular target: T4, CRX HD E4N;K50Q; experiment: EMSA; remark: listed apart in the source
CRX HD [12] = molecular target: T3, CRX HD; experiment: EMSA; remark: listed apart in the source
CRX HD E4K = CRX HD E4K (Homo sapiens, UniProt O43186 34-99, E42K); experiment: EMSA
CRX HD R2Q [13] = molecular target: T1, CRX HD R2Q; experiment: EMSA; remark: listed apart in the source
CRX HD R3Q = CRX HD R3Q (Homo sapiens, UniProt O43186 34-99, R41Q); experiment: EMSA
CRX HD R3Q, sequence (O43186 34-99 R41Q): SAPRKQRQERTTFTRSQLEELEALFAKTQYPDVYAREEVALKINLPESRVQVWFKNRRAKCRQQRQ

T2 sequence (O43186 34-99 K88Q): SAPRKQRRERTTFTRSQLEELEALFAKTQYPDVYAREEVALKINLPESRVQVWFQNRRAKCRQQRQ
T4 sequence (O43186 34-99 E42N/K88Q): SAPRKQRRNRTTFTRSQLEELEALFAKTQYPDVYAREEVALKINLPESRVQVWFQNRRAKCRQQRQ
T1 sequence (O43186 34-99 R40Q): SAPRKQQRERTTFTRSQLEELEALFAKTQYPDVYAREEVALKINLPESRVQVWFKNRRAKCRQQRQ
T3 sequence (O43186 34-99): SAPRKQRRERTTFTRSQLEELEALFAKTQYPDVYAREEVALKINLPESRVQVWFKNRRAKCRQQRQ
PHOX2B HD R44G, sequence (Q99453 94-158 R141G): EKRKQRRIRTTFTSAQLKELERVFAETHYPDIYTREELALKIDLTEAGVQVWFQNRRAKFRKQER
ARX HD P26L, sequence (O35085 326-390 P355L): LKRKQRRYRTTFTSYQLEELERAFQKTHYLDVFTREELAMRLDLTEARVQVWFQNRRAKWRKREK
CRX HD E4N, sequence (O43186 34-99 E42N): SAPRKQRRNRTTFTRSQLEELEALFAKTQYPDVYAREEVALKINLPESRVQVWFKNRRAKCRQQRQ
CRX HD E4K, sequence (O43186 34-99 E42K): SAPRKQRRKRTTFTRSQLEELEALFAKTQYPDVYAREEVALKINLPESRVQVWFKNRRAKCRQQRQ

Molecule: PHOX2B Q46K homeodomain protein (domain or fragment)
Tau with P3Q DNA [4]: 0.9

B1: P3K (dsDNA)
DNA 1: TGTGTCTTAATCCGATTAACGCACTTGATAGTGCGGGCGTGGCT
DNA 2: AGCCACGCCCGCACTATCAAGTGCGTTAATCGGATTAAGACACA
binding result (CRX HD R2Q [6]): binds
binding signal (CRX HD K50Q [7]): 340 ± 161 Tau
binding signal (CRX HD [8]): 8.94 ± 1.78 Tau
binding signal (CRX HD E4N;K50Q [9]): 395 ± 90.1 Tau
binding result (CRX HD E4N): binds

B2: P3Q (dsDNA)
DNA 1: TGTGTCTTAATTAGATTAACGCACTTGATAGTGCGGGCGTGGCT
DNA 2: AGCCACGCCCGCACTATCAAGTGCGTTAATCTAATTAAGACACA
binding signal (CRX HD K50Q [7]): 54.6 ± 2.72 Tau
binding signal (CRX HD E4N;K50Q [9]): 112 ± 12.1 Tau
binding signal (ARX HD P26L): ~10 fold decrease in Tau vs WT
binding result (PHOX2B HD R44G): no binding

B3: Q50 monomer (TAATTA) (dsDNA)
DNA 1: CGGGCTAATTAGGCCTAGTGCGGGCGTGGCT
DNA 2: AGCCACGCCCGCACTAGGCCTAATTAGCCCG
binding result (CRX HD K50Q [10]): binds
binding result (CRX HD E4N;K50Q [11]): binds

B4: P4K (dsDNA)
DNA 1: TGTGTCTTAATCCGGATTAACGCACTTGATAGTGCGGGCGTGGCT
DNA 2: AGCCACGCCCGCACTATCAAGTGCGTTAATCCGGATTAAGACACA
binding result (CRX HD [12]): binds

B5: K50 monomer (TAATCC) (dsDNA)
DNA 1: CGGGCTAATCCGGCCTAGTGCGGGCGTGGCT
DNA 2: AGCCACGCCCGCACTAGGCCGGATTAGCCCG
binding result (CRX HD E4K): binds
binding result (CRX HD R2Q [13]): binds
binding result (CRX HD R3Q): binds

Second part, the molecule after the results:

Tau with P4Q DNA [1]: 0.792
Molecule: ALX4 homeodomain protein (amino acids 209-274) (from UniProt Q9H161 209-274) (domain or fragment)

Tau with P3K DNA [2]: 0.157
Molecule: PITX3 homeodomain protein (66 amino acid region) (domain or fragment)

Tau with P3Q DNA [3]: 1.27
Molecule: PHOX2B Q46R homeodomain protein (domain or fragment)

Tau with P4Q DNA [5]: 0.29
Molecule: OTP homeodomain protein (amino acids 99-164) (from UniProt Q5XKR4 99-164) (domain or fragment)
